Source: IntAct's records for PubMed 14532330

B1: Protein phosphatase 1 regulatory subunit 3C (Homo sapiens), Q9UQK1 (parent)
chain: MSCTRMIQVLDPRPLTSSVMPVDVAMRLCLAHSPPVKSFLGPYDEFQRRHFVNKLKPLKSCLNIKHKAKSQNDWKCSHNQAKKRVVFADSKGLSLTAIHVFSDLPEEPAWDLQFDLLDLNDISSALKHHEEKNLILDFPQPSTDYLSFRSHFQKNFVCLENCSLQERTVTGTVKVKNVSFEKKVQIRITFDSWKNYTDVDCVYMKNVYGGTDSDTFSFAIDLPPVIPTEQKIEFCISYHANGQVFWDNNDGQNYRIVHVQWKPDGVQTQMAPQDCAFHQTSPKTELESTIFGSPRLASGLFPEWQSWGRMENLASYR
partner: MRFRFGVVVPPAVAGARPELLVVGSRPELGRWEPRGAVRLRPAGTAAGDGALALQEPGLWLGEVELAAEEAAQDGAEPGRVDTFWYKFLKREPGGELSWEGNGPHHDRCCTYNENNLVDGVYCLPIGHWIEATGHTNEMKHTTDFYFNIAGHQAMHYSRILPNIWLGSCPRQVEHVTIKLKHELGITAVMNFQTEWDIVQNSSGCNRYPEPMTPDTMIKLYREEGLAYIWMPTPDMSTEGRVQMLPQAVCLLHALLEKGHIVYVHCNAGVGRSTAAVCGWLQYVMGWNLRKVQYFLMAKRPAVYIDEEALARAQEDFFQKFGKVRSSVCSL
B2: Laforin (Homo sapiens), O95278 (parent)
chain: B1 partner
partner: B1 chain

Variants of: B1
Conditions: with epm2a_human EPM2A

effect of a mutation on the interaction | Variant
disrupting interaction | MSCTRMIQVLDPRPLTSSVMPVDVAMRLCLAHSPPVKSFLGPYDEFQRRHFVNKLKPLKSCLNIKHKAKSQNDWKCSHNQAKKRVVFADSKGLSLTAIHVFSDLPEEPAWDLQFDLLDLNDISSALKHHEEKNLILDFPQPSTDYLSFRSHFQKNFVCLENCSLQERTVTGTVKVKNVSFEKKVQIRITFDSWKNYTDVDCVYMKNVYGGTDSDTFSFAIDLPPVIPTEQKIEFCISYHANGQVFWANNAGQNYRIVHVQWKPDGVQTQMAPQDCAFHQTSPKTELESTIFGSPRLASGLFPEWQSWGRMENLASYR [D247A;D250A]

Variants of: B2
Conditions: with ppr3c_human PPP1R3C

effect of a mutation on the interaction | Variant
disrupting interaction | MRFRFGVVVPPAVAGARPELLVVGSRPELGRWEPRGAVRLRPAGTAAGDGALALQEPGLWLGEVELAAEEAAQDGAEPGRVDTFWYKFLKREPGGELSWEGNGPHHDCCCTYNENNLVDGVYCLPIGHWIEATGHTNEMKHTTDFYFNIAGHQAMHYSRILPNIWLGSCPRQVEHVTIKLKHELGITAVMNFQTEWDIVQNSSGCNRYPEPMTPDTMIKLYREEGLAYIWMPTPDMSTEGRVQMLPQAVCLLHALLEKGHIVYVHCNAGVGRSTAAVCGWLQYVMGWNLRKVQYFLMAKRPAVYIDEEALARAQEDFFQKFGKVRSSVCSL [R108C]
decreasing interaction | MRFRFGVVVPPAVAGARPELLVVGSRPELGRWEPRGAVRLRPAGTAAGDGALALQEPGLWLGEVELAAEEAAQDGAEPGRVDTFWYKFLKREPGGELSWEGNGPHHDRCCTYNENNLVDGVYCLPIGHWIEATGHTNEMKHTTDFYFNIAGHQAMHYSRILPNIWLGSCPRQVEHVTIKLKHELGITAVMNFQTEWDIVQNSSGCNRYPEPMTPDTMIKLYREEGLAYIWMPTPDMSTESRVQMLPQAVCLLHALLEKGHIVYVHCNAGVGRSTAAVCGWLQYVMGWNLRKVQYFLMAKRPAVYIDEEALARAQEDFFQKFGKVRSSVCSL [G240S]
disrupting interaction | MRFRFGVVVPPAVAGARPELLVVGSRPELGRWEPRGAVRLRPAGTAAGDGALALQEPGLWLGEVELAAEEAAQDGAEPGRVDTLWYKFLKREPGGELSWEGNGPHHDRCCTYNENNLVDGVYCLPIGHWIEATGHTNEMKHTTDFYFNIAGHQAMHYSRILPNIWLGSCPRQVEHVTIKLKHELGITAVMNFQTEWDIVQNSSGCNRYPEPMTPDTMIKLYREEGLAYIWMPTPDMSTEGRVQMLPQAVCLLHALLEKGHIVYVHCNAGVGRSTAAVCGWLQYVMGWNLRKVQYFLMAKRPAVYIDEEALARAQEDFFQKFGKVRSSVCSL [F84L]
disrupting interaction | MRFRFGVVVPPAVAGARPELLVVGSRPELGRWEPRGAVRLRPAGTAAGDGALALQEPGLWLGEVELAAEEAAQDGAEPGRVDTFWYKFLKREPGGELSWEGNGPHHDRCCTYNENNLVDGVYCLPIGHWIEATGHTNEMKHTTDFYFNIAGHQAMHYSRILPNIWLGSCPRQVEHVTIKLKHELGITAVMNFQTEWDIVQNSSGCNRYPEPMTPDTMIKLYREEGLAYIWMPTPDMSTEGRVQMLPQAVCLLHALLEKGHIVYVHCNAGVGRSTAAVCGWLQYVMGWNLRKVQNFLMAKRPAVYIDEEALARAQEDFFQKFGKVRSSVCSL [Y294N]
disrupting interaction | MRFRFGVVVPPAVAGARPELLVVGSRPELGRWEPRGAVRLRPAGTAAGDGALALQEPGLWLGEVELAAEEAAQDGAEPGRVDTFWYKFLKREPGGELSWEGNGPHHDRCCTYNENNLVDGVYCLPIGHWIEATGHTNEMKHTTDFYFNIAGHQAMHYSRILPNIWLGSCPRQVEHVTIKLKHELGITAVMNFQTEWDIVQNSSGCNRYPEPMTPDTMIKLYREEGLAYIWMPTPDMSTEGRVQMLPQAVCLLHALLEKGHIVYVHCNAGVGRSTAAVCGWLQYVMGWNLRKVQYFLMAKRLAVYIDEEALARAQEDFFQKFGKVRSSVCSL [P301L]
disrupting interaction | MRFRFGVVVPPAVAGARPELLVVGSRPELGRGEPRGAVRLRPAGTAAGDGALALQEPGLWLGEVELAAEEAAQDGAEPGRVDTFWYKFLKREPGGELSWEGNGPHHDRCCTYNENNLVDGVYCLPIGHWIEATGHTNEMKHTTDFYFNIAGHQAMHYSRILPNIWLGSCPRQVEHVTIKLKHELGITAVMNFQTEWDIVQNSSGCNRYPEPMTPDTMIKLYREEGLAYIWMPTPDMSTEGRVQMLPQAVCLLHALLEKGHIVYVHCNAGVGRSTAAVCGWLQYVMGWNLRKVQYFLMAKRPAVYIDEEALARAQEDFFQKFGKVRSSVCSL [W32G]
increasing interaction | MRFRFGVVVPPAVAGARPELLVVGSRPELGRWEPRGAVRLRPAGTAAGDGALALQEPGLWLGEVELAAEEAAQDGAEPGRVDTFWYKFLKREPGGELSWEGNGPHHDRCCTYNENNLVDGVYCLPIGHWIEATGHTNEMKHTTDFYFNIAGHQAMHYSRILPNIWLGSCPRQVEHVTIKLKHELGITAVMNFQTEWDIVQNSSGCNRYPEPMTPDTMIKLYREEGLAYIWMPTPDMSTEGRVQMLPQAVCLLHALLEKGHIVYVHSNAGVGRSTAAVCGWLQYVMGWNLRKVQYFLMAKRPAVYIDEEALARAQEDFFQKFGKVRSSVCSL [C266S]
disrupting interaction | MRFRFGVVVPPAVAGARPELLVVGSRPELGRWEPRGAVRLRPAGTAAGDGALALQEPGLWLGEVELAAEEAAQDGAEPGRVDTFWYKFLKREPGGELSWEGNGPHHDRCCTYNENNLVDGVYCLPIGHWIEATGHTNEMKHTTDFYFNIAGHQAMHYSRILPNIWLGSCPRQVEHVTIKLKHELGITAVMNFQIEWDIVQNSSGCNRYPEPMTPDTMIKLYREEGLAYIWMPTPDMSTEGRVQMLPQAVCLLHALLEKGHIVYVHCNAGVGRSTAAVCGWLQYVMGWNLRKVQYFLMAKRPAVYIDEEALARAQEDFFQKFGKVRSSVCSL [T194I]
decreasing interaction | MRFRFGVVVPPAVAGARPELLVVGSRPELGRWEPRGAVRLRPAGTAAGDGALALQEPGLWLGEVELAAEEAAQDGAEPGRVDTFWYKFLKREPGGELSWEGNGPHHDRCCTYNENNLVDGVYCLPIGHWIEATGHTNEMKHTTDFYFNIAGHQAMHYSRILPNIWLGSCPRQVEHVTIKLKHELGITAVMNFQTEWDIVQNSSGCNRYPEPMTPDTMIKLYREEGLAYIWMPTPDMSTEGRVQMLPQAVCLLHALLEKGHIVYVHCNAGVGRSTAAVCSWLQYVMGWNLRKVQYFLMAKRPAVYIDEEALARAQEDFFQKFGKVRSSVCSL [G279S]
disrupting interaction | MRFRFGVVVPPAVAGARPELLVVGSRPELGRWEPRGAVRLRPAGTAAGDGALALQEPGLWLGEVELAAEEAAQDGAEPGRVDTFWYKFLKREPGGELSWEGNGPHHDRCCTYNENNLVDGVYCLPIGHWIEATGHTNEMKHTTDFYFNIAGHQAMHYSRILPNIWLGSCPRQVEHVTIKLKHELGITAVMNFQTEWDIVQNSSGCNRYPEPMTPDTMIKLYREEGLAYIWMPTPDMSTEGRVQMLPQAVCLLHALLEKGHIVYVHCNAGVGRSTAAVCGWLQYVMGWNLRKVLYFLMAKRPAVYIDEEALARAQEDFFQKFGKVRSSVCSL [Q293L]
